Reference: patent US20260218204, “APTAMERS SPECIFIC FOR TLR-4 AND USES THEREOF” (Merck Patent GmbH, published 2026)

B1: TLRApt#1R (ssDNA)
DNA: GTTGCTCGTATTTAGGGCCACCGGCACGGGACAAGGCGCGGGACGGCGTAGATCAGGTCGACACCAGTCTTCATCCGC
B2: TLRApt#4F (ssDNA)
DNA: GCGGATGAAGACTGGTGTGCCAATAAACCATATCGCCGCGTTAGCATGTACTCGGTTGGCCCTAAATACGAGCAAC

Molecular target: TLR-4 extracellular domain (Homo sapiens, UniProt O00206 O00206:24-631)
Assay: ELONA; 200 nM aptamer, 20 mM Tris pH 7.4, 1 mM MgCl2, 150 mM NaCl, 5 mM KCl, 37 C; among the most efficient binders
Conditions: tags: C-terminal 6xHis, expressed in baculovirus; label: 5' digoxigenin (ELONA); predicted G4
Experimental: It was determined if the selected aptamers recognized the TLR-4 protein. To that end, 100 ng/well of 6×HIS-recombinant TLR-4 were added to a 96-well microtiter plate and were incubated at 4° C. for 16 h. Subsequently, individual aptamers labeled with digoxigenin in the 5′ end were diluted at a concentration of 5 μg/mL and then denatured for 10 min at 95° C. and cooled for 10 min on ice. Then, 20 pmol of each of the aptamers in 100 μl (200 nM) of aptamer buffer were added to each well and the plate was incubated for 1 h at 37° C. Finally, the plate was incubated with peroxidase-conjugated anti-digoxigenin antibodies and developed using ABTS. An anti-Li H2A DNA aptamer was used as a positive control (Martin et al., 2013, PLoS ONE 8: e78886).
By means of the same type of assay, aptamers TLRApt#2F and TLRApt#3R were identified.

TLR-4 extracellular domain, sequence (O00206 24-631, one chain of several): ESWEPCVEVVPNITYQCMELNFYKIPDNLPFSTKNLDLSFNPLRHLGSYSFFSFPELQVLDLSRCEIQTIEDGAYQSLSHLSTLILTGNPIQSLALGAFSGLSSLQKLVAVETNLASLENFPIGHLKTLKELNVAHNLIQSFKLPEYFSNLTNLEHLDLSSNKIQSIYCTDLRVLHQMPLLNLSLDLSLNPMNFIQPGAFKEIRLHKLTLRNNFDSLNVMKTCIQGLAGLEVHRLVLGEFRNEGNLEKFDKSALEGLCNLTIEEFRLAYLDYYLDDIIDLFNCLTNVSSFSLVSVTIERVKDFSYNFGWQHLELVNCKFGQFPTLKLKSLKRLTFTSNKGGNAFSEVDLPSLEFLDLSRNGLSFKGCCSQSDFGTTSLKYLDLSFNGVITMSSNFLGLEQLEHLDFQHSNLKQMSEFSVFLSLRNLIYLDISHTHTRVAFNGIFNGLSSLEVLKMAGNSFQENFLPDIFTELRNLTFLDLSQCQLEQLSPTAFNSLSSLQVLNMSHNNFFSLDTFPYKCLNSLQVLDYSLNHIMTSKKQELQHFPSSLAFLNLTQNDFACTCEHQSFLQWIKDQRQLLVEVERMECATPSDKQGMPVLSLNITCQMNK

| Binder | binding result |
| --- | --- |
| B1 | binds |
| B2 | binds |
